Measured values published in US20250188146A1.
Blank lines part the entries; values can stand above or below the binder they belong to.

Columns and labels:
[1] = biological target: CD19 (UniProt P15391); assay: cell-based or functional assay
[2] = biological target: CLDN18.2 on KATO III-18.2+ cells (UniProt P56856); assay: cell-based or functional assay

Sequence of CD19 (P15391 20-556 limits assumed): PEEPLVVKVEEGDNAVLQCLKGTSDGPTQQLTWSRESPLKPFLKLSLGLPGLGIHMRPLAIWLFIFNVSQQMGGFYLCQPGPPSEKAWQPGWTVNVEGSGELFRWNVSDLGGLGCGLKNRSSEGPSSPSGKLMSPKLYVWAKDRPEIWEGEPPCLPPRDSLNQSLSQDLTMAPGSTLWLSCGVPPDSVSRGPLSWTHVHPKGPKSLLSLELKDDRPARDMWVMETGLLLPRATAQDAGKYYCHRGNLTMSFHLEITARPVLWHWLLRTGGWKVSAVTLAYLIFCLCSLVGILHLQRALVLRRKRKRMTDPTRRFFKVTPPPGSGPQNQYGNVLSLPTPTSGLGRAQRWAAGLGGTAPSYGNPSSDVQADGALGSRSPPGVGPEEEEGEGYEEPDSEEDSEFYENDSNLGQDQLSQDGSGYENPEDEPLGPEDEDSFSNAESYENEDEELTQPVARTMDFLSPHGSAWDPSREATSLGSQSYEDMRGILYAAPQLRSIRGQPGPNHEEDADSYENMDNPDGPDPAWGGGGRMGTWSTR

CD25, hCAR+ cells; K19 co-culture 24 h; PBMC+, IL6+, IL15- [1]: 48.3%
CD25, hCAR+ cells; K19 co-culture 24 h; PBMC+, IL6-, IL15- [1]: 53%
CD25, hCAR+ cells; K19 co-culture 24 h; PBMC-, IL6+, IL15- [1]: 52.3%
CD25, hCAR+ cells; K19 co-culture 24 h; PBMC-, IL6-, IL15+ [1]: 57.1%
CD25, hCAR+ cells; K19 co-culture 24 h; PBMC-, IL6-, IL15- [1]: 53.1%
CD25, hCAR+ cells; K19 co-culture 48 h; PBMC+, IL6+, IL15- [1]: 34.2%
CD25, hCAR+ cells; K19 co-culture 48 h; PBMC+, IL6-, IL15- [1]: 35.8%
CD25, hCAR+ cells; K19 co-culture 48 h; PBMC-, IL6+, IL15- [1]: 39.1%
CD25, hCAR+ cells; K19 co-culture 48 h; PBMC-, IL6-, IL15+ [1]: 43.4%
CD25, hCAR+ cells; K19 co-culture 48 h; PBMC-, IL6-, IL15- [1]: 41.5%
CD25 MFI, hCAR+ cells; K19 co-culture 24 h; PBMC+, IL6+, IL15- [1]: 6740 MFI
CD25 MFI, hCAR+ cells; K19 co-culture 24 h; PBMC+, IL6-, IL15- [1]: 7080 MFI
CD25 MFI, hCAR+ cells; K19 co-culture 24 h; PBMC-, IL6+, IL15- [1]: 6480 MFI
CD25 MFI, hCAR+ cells; K19 co-culture 24 h; PBMC-, IL6-, IL15+ [1]: 6060 MFI
CD25 MFI, hCAR+ cells; K19 co-culture 24 h; PBMC-, IL6-, IL15- [1]: 6200 MFI
CD25 MFI, hCAR+ cells; K19 co-culture 48 h; PBMC+, IL6+, IL15- [1]: 11200 MFI
CD25 MFI, hCAR+ cells; K19 co-culture 48 h; PBMC+, IL6-, IL15- [1]: 11800 MFI
CD25 MFI, hCAR+ cells; K19 co-culture 48 h; PBMC-, IL6+, IL15- [1]: 12300 MFI
CD25 MFI, hCAR+ cells; K19 co-culture 48 h; PBMC-, IL6-, IL15+ [1]: 11400 MFI
CD25 MFI, hCAR+ cells; K19 co-culture 48 h; PBMC-, IL6-, IL15- [1]: 11100 MFI
CD137, hCAR+ cells; K19 co-culture 24 h; PBMC+, IL6+, IL15- [1]: 35.6%
CD137, hCAR+ cells; K19 co-culture 24 h; PBMC+, IL6-, IL15- [1]: 39.9%
CD137, hCAR+ cells; K19 co-culture 24 h; PBMC-, IL6+, IL15- [1]: 55.8%
CD137, hCAR+ cells; K19 co-culture 24 h; PBMC-, IL6-, IL15+ [1]: 62.1%
CD137, hCAR+ cells; K19 co-culture 24 h; PBMC-, IL6-, IL15- [1]: 57.4%
CD137, hCAR+ cells; K19 co-culture 48 h; PBMC+, IL6+, IL15- [1]: 28%
CD137, hCAR+ cells; K19 co-culture 48 h; PBMC+, IL6-, IL15- [1]: 47.1%
CD137, hCAR+ cells; K19 co-culture 48 h; PBMC-, IL6+, IL15- [1]: 57.6%
CD137, hCAR+ cells; K19 co-culture 48 h; PBMC-, IL6-, IL15+ [1]: 58.6%
CD137, hCAR+ cells; K19 co-culture 48 h; PBMC-, IL6-, IL15- [1]: 57.3%
CD137MFI, hCAR+ cells; K19 co-culture 24 h; PBMC+, IL6+, IL15- [1]: 18100 MFI
CD137MFI, hCAR+ cells; K19 co-culture 24 h; PBMC+, IL6-, IL15- [1]: 19000 MFI
CD137MFI, hCAR+ cells; K19 co-culture 24 h; PBMC-, IL6+, IL15- [1]: 23400 MFI
CD137MFI, hCAR+ cells; K19 co-culture 24 h; PBMC-, IL6-, IL15+ [1]: 25500 MFI
CD137MFI, hCAR+ cells; K19 co-culture 24 h; PBMC-, IL6-, IL15- [1]: 26800 MFI
CD137MFI, hCAR+ cells; K19 co-culture 48 h; PBMC+, IL6+, IL15- [1]: 43000 MFI
CD137MFI, hCAR+ cells; K19 co-culture 48 h; PBMC+, IL6-, IL15- [1]: 24800 MFI
CD137MFI, hCAR+ cells; K19 co-culture 48 h; PBMC-, IL6+, IL15- [1]: 51500 MFI
CD137MFI, hCAR+ cells; K19 co-culture 48 h; PBMC-, IL6-, IL15+ [1]: 51900 MFI
CD137MFI, hCAR+ cells; K19 co-culture 48 h; PBMC-, IL6-, IL15- [1]: 52600 MFI
CD137 expression of CAR T CD8+ cells, co-culture 48 h with Nalm-6 [1]: 11.1%
IFN-γ release, background subtracted; K19 co-culture 24 h; PBMC+, IL6+, IL15- [1]: 64300
IFN-γ release, background subtracted; K19 co-culture 24 h; PBMC+, IL6-, IL15- [1]: 64800
IFN-γ release, background subtracted; K19 co-culture 24 h; PBMC-, IL6+, IL15- [1]: 19200
IFN-γ release, background subtracted; K19 co-culture 24 h; PBMC-, IL6-, IL15+ [1]: 21300
IFN-γ release, background subtracted; K19 co-culture 24 h; PBMC-, IL6-, IL15- [1]: 16000
IFN-γ release, background subtracted; K19 co-culture 48 h; PBMC+, IL6+, IL15- [1]: 152000
IFN-γ release, background subtracted; K19 co-culture 48 h; PBMC+, IL6-, IL15- [1]: 160000
IFN-γ release, background subtracted; K19 co-culture 48 h; PBMC-, IL6+, IL15- [1]: 120000
IFN-γ release, background subtracted; K19 co-culture 48 h; PBMC-, IL6-, IL15+ [1]: 134000
IFN-γ release, background subtracted; K19 co-culture 48 h; PBMC-, IL6-, IL15- [1]: 114000
B1: CD19 CAR with humanized CD19 scFv (binding domain SEQ ID NO: 5) (protein, not shown: a dimerising Fc or GST)
chain: DIQMTQSPSSLSASVGDRVTITCRASQDISKYLNWYQQKPGKAPKLLIYHTSRLHSGVPSRFSGSGSGTDFTLTISSLQPEDFATYYCQQGNTLPYTFGQGTKVEIKGGGGSGGGGSGGGGSEVQLVESGGGLVQPGGSLRLSCAASGVSLPDYGVSWVRQAPGKGLEWVSVIWGSETTYYNSALKSRFTISRDNAKNSLYLQMNSLRAEDTAVYYCAKHYYYGGSYAMDYWGQGTLVTVSS

CD137 expression of CAR T CD8+ cells, co-culture 48 h with KATO III-18.2+ [2]: 8.77%
B2: 18.2 CAR (protein, part only; not given: Hinge, transmembrane and signaling domains, part only)
chain, part: DIVMTQSPSSLTVTAGEKVTMSCKSSQSLLNSGNQKNYLTWYQQKPGQPPKLLIYWASTRESGVPDRFTGSGSGTDFTLTISSVQAEDLAVYYCQNDYSYPFTFGSGTKLEIKGGGGSGGGGSGGGGSQVQLQQPGAELVRPGASVKLSCKASGYTFTSYWINWVKQRPGQGLEWIGNIYPSDSYTNYNQKFKDKATLTVDKSSSTAYMQLSSPTSEDSAVYYCTRSWRGNSFDYWGQGTTLTVSS
